Experimental data published in US20210269546A1.

Key:
[1] = molecular target: human recombinant CD64 (Fc gamma receptor I), R&D Systems (human) (UniProt P12314); assay: SPR (Biacore T200), construct captured on Protein A, soluble CD64 as analyte
[2] = molecular target: FcγRIIIaV158 (on cells bearing the labeled receptor, TR-FRET) (UniProt P08637); assay: TR-FRET competition (CisBio) on cells bearing the labeled receptor; competitor: labeled antibody
[3] = molecular target: FcγRIIaH131 (cell surface CD32a, cells bearing the labeled receptor, TR-FRET) (UniProt P12318); assay: as above
[4] = molecular target: FcγRIIb (on cells bearing the labeled receptor, TR-FRET) (UniProt P31994); assay: as above
Sequence of FcγRIIb (on cells bearing the labeled receptor, TR-FRET) (P31994 43-310 limits assumed): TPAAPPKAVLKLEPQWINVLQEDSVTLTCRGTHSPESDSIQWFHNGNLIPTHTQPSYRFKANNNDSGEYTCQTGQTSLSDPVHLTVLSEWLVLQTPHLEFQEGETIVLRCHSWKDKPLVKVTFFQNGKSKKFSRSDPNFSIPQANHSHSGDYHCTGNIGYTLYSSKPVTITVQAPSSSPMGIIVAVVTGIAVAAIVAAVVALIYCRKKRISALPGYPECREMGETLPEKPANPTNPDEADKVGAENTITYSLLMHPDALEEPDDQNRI

Sequence of FcγRIIIaV158 (on cells bearing the labeled receptor, TR-FRET) (P08637 17-254 F176V): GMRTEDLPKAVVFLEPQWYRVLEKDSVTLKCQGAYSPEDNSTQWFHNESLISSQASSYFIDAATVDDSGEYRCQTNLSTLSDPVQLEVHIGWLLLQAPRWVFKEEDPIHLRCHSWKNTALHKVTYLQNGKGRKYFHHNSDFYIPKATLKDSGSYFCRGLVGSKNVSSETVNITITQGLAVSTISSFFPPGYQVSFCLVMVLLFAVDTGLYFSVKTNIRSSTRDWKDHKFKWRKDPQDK
Sequence of human recombinant CD64 (Fc gamma receptor I), R&D Systems (human) (P12314 16-288 limits assumed): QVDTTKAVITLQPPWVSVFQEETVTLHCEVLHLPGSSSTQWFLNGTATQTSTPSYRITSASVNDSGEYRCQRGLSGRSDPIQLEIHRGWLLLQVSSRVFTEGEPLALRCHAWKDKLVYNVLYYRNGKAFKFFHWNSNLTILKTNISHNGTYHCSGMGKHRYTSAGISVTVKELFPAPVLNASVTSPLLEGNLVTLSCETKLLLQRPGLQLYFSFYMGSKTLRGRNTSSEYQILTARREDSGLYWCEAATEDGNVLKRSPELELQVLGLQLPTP
Sequence of FcγRIIaH131 (cell surface CD32a, cells bearing the labeled receptor, TR-FRET) (P12318 34-317): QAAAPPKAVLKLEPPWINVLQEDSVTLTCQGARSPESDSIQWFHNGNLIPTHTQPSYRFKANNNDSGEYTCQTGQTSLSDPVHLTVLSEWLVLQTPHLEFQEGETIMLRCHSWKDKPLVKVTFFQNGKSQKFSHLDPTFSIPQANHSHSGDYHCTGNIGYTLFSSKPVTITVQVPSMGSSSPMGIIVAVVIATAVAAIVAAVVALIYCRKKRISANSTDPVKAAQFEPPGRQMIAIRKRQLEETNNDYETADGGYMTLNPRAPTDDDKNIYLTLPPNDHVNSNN

With “anti-CD20 mAb (CDRs from Gazyva (obinutuzumab)) (antibody)” the CD64 Valency by SPR [1] was 1.5, the IC50 [2] was 428 nM and the IC50 [3] was 1270 nM. The IC50 [4] was 3290 nM.
